Target: the molecule itself
Assay: thioflavin T fluorescence; synthetic peptides 5-50 µM in PBS, incubated 24 h at 37 °C, then 25 µM thioflavin T; fluorescence spectra

B1: Y15 peptide (peptide)
peptide: YEYKYEYKYEYKYEY
notes: de novo designed self-assembling peptide Y15; source: synthetic peptide (Fmoc solid-phase synthesis, RP-HPLC)
Question: Does B1 bind?
Answer: binds

— publication PMC8185068, “Intracellular artificial supramolecules based on de novo designed Y15 peptides” (Nature Communications, 2021)
